{"source": "paper PMC6395948", "about": "(Molecular Cell, 2019)", "binders": {"B1": {"name": "McbB (natural protein, Escherichia coli)", "chain": "MVLPDIKKGKDMINILPFEIISRNTKTLLITYISSVDITHEGMKKVLESLRSKQGIISEYLLDKLLDESLIDKDKGKEFLITTGVINKTKTSPLWVNSVIISDVPHLFSNAREQWKCDGVFVSHIIDIKDNNINVSDSTLIWLHLENYHSDIVKRIYSKFESNPGVAFIQSYYLKESFRIDGVYSPDLGTPCHFCHIERWLSREEKSFRRNEMSWANLLQLLKKYQMTLPALALGESERGFSYHLIKRRLQELTGTSLVKSHVDNFMSSVSADLITCILCKEPVIHWQACSCLER"}}, "key": {"McbD": {"molecular_target": "T1, McbD (Escherichia coli, UniProt P23186 1-396)", "T1 sequence": "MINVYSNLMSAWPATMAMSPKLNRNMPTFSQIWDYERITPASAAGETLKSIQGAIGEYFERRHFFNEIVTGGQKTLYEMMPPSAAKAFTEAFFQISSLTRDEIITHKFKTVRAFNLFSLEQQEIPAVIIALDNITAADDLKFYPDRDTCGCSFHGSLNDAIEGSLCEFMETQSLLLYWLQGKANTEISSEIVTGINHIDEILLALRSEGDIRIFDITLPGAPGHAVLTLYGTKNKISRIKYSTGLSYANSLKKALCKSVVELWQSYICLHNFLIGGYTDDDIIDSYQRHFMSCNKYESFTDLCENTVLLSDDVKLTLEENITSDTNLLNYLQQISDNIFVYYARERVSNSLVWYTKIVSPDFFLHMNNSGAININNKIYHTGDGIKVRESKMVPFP", "experiment": "crystal structure"}, "crystal structure": {"molecular_target": "the molecule itself", "experiment": "crystal structure"}}, "data": [{"binder": "B1", "values": [{"measurement": "binding result", "setting": "McbD", "result": "binds"}, {"measurement": "stoichiometry N", "setting": "crystal structure", "result": 2}]}]}
